One block for each substance: values may come before it. Bridge positions count the residues as written; N and C are the ends. Square brackets hold non-standard residues; d marks the D form.
Assays:
hMC1-R (human) [1] = target: hMC1-R (human) (UniProt Q01726); experiment: competition with [125I]-NDP-α-MSH, CHO-K1 membranes
hMC3-R (human) [2] = target: hMC3-R (human) (UniProt P41968); experiment: as above
hMC4-R (human) [3] = target: hMC4-R (human) (UniProt P32245); experiment: as above
hMC5-R (human) [4] = target: hMC5-R (human) (UniProt P33032); experiment: cell-based or functional assay
[5] = target: human melanocortin receptor subtype 1 (hMC1-R) (human) (UniProt Q01726); experiment: [125I]-NDP-α-MSH competition, membranes
[6] = target: human melanocortin receptor subtype 3 (hMC3-R) (human) (UniProt P41968); experiment: [125I]-NDP-α-MSH competition, membranes
[7] = target: human melanocortin receptor subtype 4 (hMC4-R) (human) (UniProt P32245); experiment: [125I]-NDP-α-MSH competition, membranes
[8] = target: human melanocortin receptor subtype 5 (hMC5-R) (human) (UniProt P33032); experiment: [125I]-NDP-α-MSH competition, membranes
hMC1-R (human) [9] = target: hMC1-R (human) (UniProt Q01726); experiment: cell-based or functional assay
hMC3-R (human) [10] = target: hMC3-R (human) (UniProt P41968); experiment: cell-based or functional assay
hMC4-R (human) [11] = target: hMC4-R (human) (UniProt P32245); experiment: cell-based or functional assay
hMC1-R (human) [12] = target: hMC1-R (human) (UniProt Q01726); experiment: ratio Ki hMC1-R / Ki hMC4-R, same assay
hMC5-R (human) [13] = target: hMC5-R (human) (UniProt P33032); experiment: competition with [125I]-NDP-α-MSH, CHO-K1 membranes

Chain of hMC1-R (human) (Q01726 whole entry): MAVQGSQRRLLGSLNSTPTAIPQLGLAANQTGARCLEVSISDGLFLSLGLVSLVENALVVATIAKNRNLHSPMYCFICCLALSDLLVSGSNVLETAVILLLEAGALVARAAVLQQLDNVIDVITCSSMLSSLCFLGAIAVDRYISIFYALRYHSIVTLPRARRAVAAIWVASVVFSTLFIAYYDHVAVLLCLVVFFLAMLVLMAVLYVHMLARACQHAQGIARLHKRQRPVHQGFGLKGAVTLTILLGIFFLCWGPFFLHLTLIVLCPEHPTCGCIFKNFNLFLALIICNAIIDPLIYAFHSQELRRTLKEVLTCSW
Chain of human melanocortin receptor subtype 1 (hMC1-R) (human) (Q01726 whole entry): as above
Chain of hMC3-R (human) (P41968 whole entry): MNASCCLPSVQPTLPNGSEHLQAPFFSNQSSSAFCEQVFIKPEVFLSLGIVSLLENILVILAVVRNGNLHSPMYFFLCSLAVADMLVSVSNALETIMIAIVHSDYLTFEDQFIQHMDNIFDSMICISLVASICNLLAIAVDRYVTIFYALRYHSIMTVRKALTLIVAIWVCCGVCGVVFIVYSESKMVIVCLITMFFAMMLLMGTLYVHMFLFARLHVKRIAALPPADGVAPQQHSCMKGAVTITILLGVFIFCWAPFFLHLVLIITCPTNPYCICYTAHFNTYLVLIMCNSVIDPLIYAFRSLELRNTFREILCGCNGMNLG
Chain of human melanocortin receptor subtype 3 (hMC3-R) (human) (P41968 whole entry): as above
Chain of hMC4-R (human) (P32245 whole entry): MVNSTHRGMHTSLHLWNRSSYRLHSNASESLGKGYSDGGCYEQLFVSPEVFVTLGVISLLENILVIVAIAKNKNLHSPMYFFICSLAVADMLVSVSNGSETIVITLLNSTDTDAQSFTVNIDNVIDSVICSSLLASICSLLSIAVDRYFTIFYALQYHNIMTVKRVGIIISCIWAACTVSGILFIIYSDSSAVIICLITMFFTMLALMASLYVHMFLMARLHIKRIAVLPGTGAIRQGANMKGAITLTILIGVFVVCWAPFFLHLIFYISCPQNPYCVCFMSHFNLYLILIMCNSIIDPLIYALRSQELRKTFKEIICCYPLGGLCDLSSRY
Chain of human melanocortin receptor subtype 4 (hMC4-R) (human) (P32245 whole entry): as above
Chain of hMC5-R (human) (P33032 whole entry): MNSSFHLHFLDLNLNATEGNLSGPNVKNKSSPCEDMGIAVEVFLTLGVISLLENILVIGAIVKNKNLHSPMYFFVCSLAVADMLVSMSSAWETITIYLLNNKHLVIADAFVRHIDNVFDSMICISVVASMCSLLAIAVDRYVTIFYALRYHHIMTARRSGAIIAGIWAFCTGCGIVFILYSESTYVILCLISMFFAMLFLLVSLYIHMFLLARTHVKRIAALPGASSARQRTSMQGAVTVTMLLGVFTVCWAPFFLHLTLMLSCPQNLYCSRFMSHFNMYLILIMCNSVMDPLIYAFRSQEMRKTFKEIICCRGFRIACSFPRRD
Chain of human melanocortin receptor subtype 5 (hMC5-R) (human) (P33032 whole entry): as above

Substance: Ac-hPhe-c(Asp-His-D-2-Nal-Arg-Trp-Gaba-Lys)-NH2 (peptide)
- Ki (hMC1-R (human) [1]): 0.461 nM
- Ki (hMC3-R (human) [2]): 2.45 nM
- Ki (hMC4-R (human) [3]): 0.931 nM

Substance: Ac-hCha-c(Asp-His-D-Phe-Arg-Trp-Gaba-Lys)-NH2 (peptide; unit assumed)
- cAMP EC50 (hMC1-R (human) [9]): 2.27 nM
- cAMP EC50 (hMC3-R (human) [10]): 3.32 nM
- cAMP EC50 (hMC4-R (human) [11]): 7.24 nM
- cAMP EC50 (hMC5-R (human) [4]): 415 nM

Substance: Ac-Nle-c(Asp-His-D-Phe-Arg-Trp-β-Ala-Lys)-NH2 (peptide; unit assumed)
- cAMP EC50 (hMC1-R (human) [9]): 0.834 nM
- cAMP EC50 (hMC3-R (human) [10]): 0.145 nM
- cAMP EC50 (hMC4-R (human) [11]): 0.128 nM
- cAMP EC50 (hMC5-R (human) [4]): 2.79 nM

Substance: Ac-D-Arg-c(Cys-D-Ala-His-D-Phe-Arg-Trp-Pen)-NH2 (peptide)
- Ki (hMC1-R (human) [1]): 8.29 nM
- Ki (hMC3-R (human) [2]): 13.3 nM
- Ki (hMC5-R (human) [13]): 816 nM

Substance: Ac-WRC[dA]H[dF]RWC-NH2 (disulfide 3-9)
- cAMP EC50 (hMC1-R (human) [9]): 5.78 nM
- cAMP EC50 (hMC3-R (human) [10]): 3.95 nM
- cAMP EC50 (hMC4-R (human) [11]): 0.219 nM
- cAMP EC50 (hMC5-R (human) [4]): 2580 nM

Substance: Ac-Cha-c(Asp-His-D-2-Nal-Arg-Trp-Gaba-Lys)-NH2 (peptide)
- Ki hMC1-R/MC4-R (hMC1-R (human) [12]): 0.2
- Ki (hMC1-R (human) [1]): 0.576 nM
- Ki (hMC3-R (human) [2]): 3.98 nM
- Ki (hMC4-R (human) [3]): 2.82 nM
- Ki (hMC5-R (human) [13]): 3.91 nM

Substance: Hydantoin(C(O)-(D-Arg-Gly))-c(Cys-D-Ala-His-D-Phe-Arg-Trp-Cys)-NH2 (peptide)
- cAMP EC50 (hMC5-R (human) [4]): 3950 nM
- Ki [5]: 3.52 nM
- Ki [6]: 48.7 nM
- Ki [7]: 5.78 nM
- Ki [8]: 872 nM

Substance: Ac-Nle-c(Cys-D-Ala-His-D-2-Nal-Arg-Trp-Cys)-NH2 (peptide; unit assumed)
- cAMP EC50 (hMC1-R (human) [9]): 17.6 nM
- cAMP Kb (hMC3-R (human) [10]): 12.4 nM
- cAMP Kb (hMC4-R (human) [11]): 38.8 nM
- cAMP EC50 (hMC5-R (human) [4]): 11.8 nM

Substance: Ac-Nle-c(Cys-D-Cha-His-D-Phe-Arg-Trp-Cys)-NH2 (peptide; unit assumed)
- cAMP EC50 (hMC1-R (human) [9]): 0.819 nM
- cAMP EC50 (hMC3-R (human) [10]): 0.541 nM
- cAMP EC50 (hMC4-R (human) [11]): 0.453 nM
- cAMP EC50 (hMC5-R (human) [4]): 45.3 nM

Substance: Hydantoin(C(O)-(D-Ala-Gly))-c(Cys-D-Ala-His-D-Phe-Arg-Trp-Cys)-NH2 (peptide)
- cAMP EC50 (hMC5-R (human) [4]): 355 nM
- Ki [5]: 11.7 nM
- Ki [7]: 4.28 nM
- Ki [8]: 34.7 nM

Substance: Hydantoin(C(O)-(D-Ala-Nle))-c(Cys-D-Ala-His-D-Phe-Arg-Trp-Cys)-NH2 (peptide)
- Ki [5]: 16 nM
- Ki [6]: 63.9 nM
- Ki [8]: 1820 nM

Substance: Ac-D-Arg-c(Asp-His-D-Phe-Arg-Trp-Ala-Lys)-NH2 (peptide; unit assumed)
- cAMP EC50 (hMC1-R (human) [9]): 1.48 nM
- cAMP EC50 (hMC3-R (human) [10]): 5.76 nM
- cAMP EC50 (hMC4-R (human) [11]): 0.078 nM
- cAMP EC50 (hMC5-R (human) [4]): 297 nM

Substance: Ac-Nle-c(Asp-His-D-2-Nal-Arg-Trp-β-Ala-Lys)-NH2 (peptide)
- Ki (hMC1-R (human) [1]): 0.648 nM

Substance: Ac-Arg-c(Asp-His-D-Phe-Arg-Trp-Ala-Lys)-NH2 (peptide; unit assumed)
- cAMP EC50 (hMC1-R (human) [9]): 1.39 nM
- cAMP EC50 (hMC3-R (human) [10]): 2.89 nM
- cAMP EC50 (hMC4-R (human) [11]): 0.055 nM
- cAMP EC50 (hMC5-R (human) [4]): 467 nM

Substance: Ac-Nle-c(Cys-3-Pal-D-Phe-Arg-Trp-Gaba-Cys)-NH2 (peptide)
- Ki (hMC1-R (human) [1]): 21.1 nM
- Ki (hMC3-R (human) [2]): 151 nM
- Ki (hMC5-R (human) [13]): 92.6 nM

The remaining lines, values ahead:

- cAMP EC50 (hMC5-R (human) [4]): 2710 nM
- Ki [5]: 9.49 nM
- Ki [6]: 124 nM
- Ki [7]: 2.95 nM
- Ki [8]: 2260 nM
Substance: Hydantoin(C(O)-(D-Arg-Gly))-c(Cys-Glu-His-D-Phe-Arg-Trp-Cys)-NH2 (peptide)

- cAMP EC50 (hMC1-R (human) [9]): 1.37 nM
- cAMP EC50 (hMC3-R (human) [10]): 0.628 nM
- cAMP EC50 (hMC4-R (human) [11]): 0.131 nM
- cAMP EC50 (hMC5-R (human) [4]): 3.48 nM
Substance: Ac-Nle-c(Asp-His-D-Phe-Arg-Trp-Gaba-Lys)-NH2 (peptide; unit assumed)

- cAMP EC50 (hMC1-R (human) [9]): 3.26 nM
- cAMP EC50 (hMC3-R (human) [10]): 0.189 nM
- cAMP EC50 (hMC4-R (human) [11]): 0.0949 nM
- cAMP EC50 (hMC5-R (human) [4]): 30.2 nM
Substance: Ac-Cha-c(Asp-His-D-Phe-Arg-Trp-Gaba-Lys)-NH2 (peptide; unit assumed)

- Ki hMC1-R/MC4-R (hMC1-R (human) [12]): 1.34
- Ki (hMC1-R (human) [1]): 22.2 nM
- Ki (hMC3-R (human) [2]): 12.7 nM
- Ki (hMC4-R (human) [3]): 16.6 nM
- Ki (hMC5-R (human) [13]): 125 nM
Substance: Ac-Nle-c(Cys-D-Ala-His-D-2-Nal-Arg-Bal-Cys)-NH2 (peptide)

- cAMP EC50 (hMC5-R (human) [4]): 7440 nM
- Ki [5]: 4.3 nM
- Ki [6]: 78 nM
- Ki [7]: 1.77 nM
- Ki [8]: 4540 nM
Substance: Hydantoin(C(O)-(Gly-D-Arg))-c(Cys-Glu-His-D-Phe-Arg-Trp-Cys)-NH2 (peptide)

- Ki (hMC5-R (human) [13]): 352 nM
Substance: Ac-D-Arg-c(Cys-D-Ala-His-D-Phe-Arg-Trp-Cys)-NH2 (peptide)

- cAMP EC50 (hMC1-R (human) [9]): 8.67 nM
- cAMP EC50 (hMC3-R (human) [10]): 4.21 nM
- cAMP EC50 (hMC4-R (human) [11]): 0.363 nM
- cAMP EC50 (hMC5-R (human) [4]): 1320 nM
Substance: Ac-1-Nal-Arg-c(Cys-D-Ala-His-D-Phe-Arg-Trp-Cys)-NH2 (peptide; unit assumed)

- cAMP EC50 (hMC1-R (human) [9]): 1.27 nM
- cAMP Kb (hMC3-R (human) [10]): 3.02 nM
- cAMP Kb (hMC4-R (human) [11]): 0.442 nM
- cAMP EC50 (hMC5-R (human) [4]): 0.736 nM
Substance: Ac-Cha-c(Asp-His-D-2-Nal-Arg-Trp-Gaba-Lys)-NH2 (peptide; unit assumed)

- Ki hMC1-R/MC4-R (hMC1-R (human) [12]): 0
- Ki (hMC1-R (human) [1]): 0.0567 nM
- Ki (hMC3-R (human) [2]): 31.4 nM
- Ki (hMC4-R (human) [3]): 14.7 nM
- Ki (hMC5-R (human) [13]): 9.27 nM
Substance: D-Phe-c(Cys-His-D-(Et)Tyr-hArg-Trp-β-Ala-D-Cys)-Thr-NH2 (peptide)
